Source: the supplement of paper PMC11246515
± gives the standard deviation of the averaged measurements.

Test: total protein half-life in vivo (active degradation + dilution); higher = more stable protein
[1] = E. coli NCM3722 delta-clpP, growth: N-lim chemostat, doubling time 6 h
[2] = E. coli NCM3722 delta-hslV, growth: N-lim chemostat, doubling time 6 h
[3] = E. coli NCM3722 delta-lon, growth: N-lim chemostat, doubling time 6 h
[4] = E. coli NCM3722 delta-smpB, growth: N-lim chemostat, doubling time 6 h
[5] = wild type E. coli NCM3722, growth: C-lim chemostat, doubling time 3 h
[6] = wild type E. coli NCM3722, growth: C-lim chemostat, doubling time 6 h
[7] = wild type E. coli NCM3722, growth: C-lim chemostat, doubling time 12 h
[8] = wild type E. coli NCM3722, growth: N-lim chemostat, doubling time 6 h
[9] = wild type E. coli NCM3722, growth: N-lim chemostat, doubling time 12 h
[10] = wild type E. coli NCM3722, growth: P-lim chemostat, doubling time 6 h
[11] = wild type E. coli NCM3722, growth: P-lim chemostat, doubling time 12 h
[12] = E. coli NCM3722 delta-clpP delta-lon delta-hslV, growth: N-lim chemostat, doubling time 6 h

Sequence | total protein half-life in vivo [1] | total protein half-life in vivo [2] | total protein half-life in vivo [3] | total protein half-life in vivo [4] | total protein half-life in vivo [5] | total protein half-life in vivo [6] | total protein half-life in vivo [7] | total protein half-life in vivo [8] | total protein half-life in vivo [9] | total protein half-life in vivo [10] | total protein half-life in vivo [11] | total protein half-life in vivo [12]
MSNTDASGEKRVTGTSERREQIIQRLRQQGSVQVNDLSALYGVSTVTIRNDLAFLEKQGIAVRAYGGALICDSTTPSVEPSVEDKSALNTAMKRSVAKAAVELIQPGHRVILDSGTTTFEIARLMRKHTDVIAMTNGMNVANALLEAEGVELLMTGGHLRRQSQSFYGDQAEQSLQNYHFDMLFLGVDAIDLERGVSTHNEDEARLNRRMCEVAERIIVVTDSSKFNRSSLHKIIDTQRIDMIIVDEGIPADSLEGLRKAGVEVILVGE [P0ACK2] | 6.24 ± 1 h | 4.83 ± 0.21 h | 5.24 ± 0.27 h | 5.04 ± 0.56 h | 3.02 ± 0.15 h | 5.31 ± 0.35 h | 9.94 ± 0.52 h | 4.89 ± 0.46 h | 9.31 ± 0.91 h | 5.05 ± 0.16 h | 9.52 ± 1.1 h | 
MSNTPIELKGSSFTLSVVHLHEAEPKVIHQALEDKIAQAPAFLKHAPVVLNVSALEDPVNWSAMHKAVSATGLRVIGVSGCKDAQLKAEIEKMGLPILTEGKEKAPRPAPTPQAPAQNTTPVTKTRLIDTPVRSGQRIYAPQCDLIVTSHVSAGAELIADGNIHVYGMMRGRALAGASGDRETQIFCTNLMAELVSIAGEYWLSDQIPAEFYGKAARLQLVENALTVQPLN | 5 ± 0.28 h | 5.32 ± 0.053 h | 5.84 ± 0.27 h | 4.34 ± 0.23 h | 2.977 ± 0.015 h | 5.72 ± 0.27 h | 9.85 ± 0.83 h | 5.25 ± 0.7 h | 8.75 ± 0.6 h | 5.44 ± 0.24 h | 11.2 ± 1 h | 5.53 ± 0.29 h
MSNTYQKRKASKEYGLYNQCKKLNDDELFRLLDDHNSLKRISSARVLQLRGGQDAVRLAIEFCSDKNYIRRDIGAFILGQIKICKKCEDNVFNILNNMALNDKSACVRATAIESTAQRCKKNPIYSPKIVEQSQITAFDKSTNVRRATAFAISVINDKATIPLLINLLKDPNGDVRNWAAFAININKYDNSDIRDCFVEMLQDKNEEVRIEAIIGLSYRKDKRVLSVLCDELKKNTVYDDIIEAAGELGDKTLLPVLDTMLYKFDDNEIITSAIDKLKRS [P0ADK6] | 4.904 ± 0.018 h | 2.92 ± 1.5 h | 2.68 ± 0.43 h | 1.77 ± 0.26 h | 2.016 ± 0.02 h | 3.9 ± 0.61 h | 5.23 ± 0.093 h | 2.17 ± 0.22 h | 2.62 ± 0.074 h | 2.65 ± 0.32 h | 4.89 ± 1 h | 5.51 ± 0.25 h
MSNVIASLEKVLLPFAVKIGKQPHVNAIKNGFIRLMPLTLAGAMFVLINNVFLSFGEGSFFYSLGIRLDASTIETLNGLKGIGGNVYNGTLGIMSLMAPFFIGMALAEERKVDALAAGLLSVAAFMTVTPYSVGEAYAVGANWLGGANIISGIIIGLVVAEMFTFIVRRNWVIKLPDSVPASVSRSFSALIPGFIILSVMGIIAWALNTWGTNFHQIIMDTISTPLASLGSVVGWAYVIFVPLLWFFGIHGALALTALDNGIMTPWALENIATYQQYGSVEAALAAGKTFHIWAKPMLDSFIFLGGSGATLGLILAIFIASRRADYRQVAKLALPSGIFQINEPILFGLPIIMNPVMFIPFVLVQPILAAITLAAYYMGIIPPVTNIAPWTMPTGLGAFFNTNGSVAALLVALFNLGIATLIYLPFVVVANKAQNAIDKEESEEDIANALKF |  | 7.11 h |  | 6.04 ± 0.73 h |  | 6.68 ± 0.31 h | 9.58 ± 2.1 h | 6.51 h |  |  | 13.3 h | 
MSPCKLLPFCVALALTGCSLAPDYQRPAMPVPQQFSLSQNGLVNAADNYQNAGWRTFFVDNQVKTLISEALVNNRDLRMATLKVQEARAQYRLTDADRYPQLNGEGSGSWSGNLKGNTATTREFSTGLNASFDLDFFGRLKNMSEAERQNYLATEEAQRAVHILLVSNVAQSYFNQQLAYAQLQIAEETLRNYQQSYAFVEKQLLTGSSNVLALEQARGVIESTRSDIAKRQGELAQANNALQLLLGSYGKLPQAQTVNSDSLQSVKLPAGLSSQILLQRPDIMEAEHALMAANANIGAARAAFFPSISLTSGISTASSDLSSLFNASSGMWNFIPKIEIPIFNAGRNQANLDIAEIRQQQSVVNYEQKIQNAFKEVADALALRQSLNDQISAQQRYLASLQITLQRARALYQHGAVSYLEVLDAERSLFATRQTLLDLNYARQVNEISLYTALGGG |  |  | 5.11 ± 0.78 h | 5.15 ± 2.9 h |  | 7.18 h | > 16 h | 6.34 ± 0.14 h | 12.47 ± 0.09 h | 6.29 ± 0.17 h | 13.07 ± 0.062 h | 6.75 h
MSQALKNLLTLLNLEKIEEGLFRGQSEDLGLRQVFGGQVVGQALYAAKETVPEERLVHSFHSYFLRPGDSKKPIIYDVETLRDGNSFSARRVAAIQNGKPIFYMTASFQAPEAGFEHQKTMPSAPAPDGLPSETQIAQSLAHLLPPVLKDKFICDRPLEVRPVEFHNPLKGHVAEPHRQVWIRANGSVPDDLRVHQYLLGYASDLNFLPVALQPHGIGFLEPGIQIATIDHSMWFHRPFNLNEWLLYSVESTSASSARGFVRGEFYTQDGVLVASTVQEGVMRNHN [P0AGG2] | 5.17 ± 0.18 h | 4.986 ± 0.04 h | 5.37 ± 0.47 h | 5.17 ± 0.67 h |  | 6.42 ± 0.37 h | 10.69 ± 0.082 h | 5.04 ± 0.13 h | 8.59 ± 0.29 h | 5.922 ± 0.027 h | 13.018 ± 0.0091 h | 5.35 ± 0.059 h
